Consider one compound from paper PMC3568146, “Very Late Antigen-4 (α4β1 Integrin) Targeted PET Imaging of Multiple Myeloma” (PLoS ONE, 2013).

“Also recorded” adds a separate entry of the source. Like-named read-outs stand apart in the source and are kept apart here.

The subject of series [1] is RPMI-8226 cells. The series is described as follows: In vitro cell uptake assay, RPMI-8226 cells. It is filed as cell-based, human. As to conditions: 0.1 nM tracer, 37°C, 60 min, 1 mM Mn2+, ~200-fold excess LLP2A, P<0.0001. How it is done:
(§1) Cell uptake assays were performed in murine 5TGM1 and human RPMI-8226 myeloma cells using ^64Cu-CB-TE1A1P-LLP2A to determine the sum of cell internalized and surface-bound fractions. Cells were grown in Iscoves MDM until 60−75% confluent, harvested by mechanical dissociation, and re-suspended in the binding medium (phosphate buffered saline [PBS], 0.1% bovine serum albumin [BSA] and 1 mM Mn^2+) in 1.5 mL microfuge tubes. A solution of ^64Cu-CB-TE1A1P-LLP2A (0.1 nM) was added to the cell suspension. The samples were incubated for 60 min in a cell incubator (37°C, 5% CO2). To determine the in vitro VLA-4 binding specificity of ^64Cu-CB-TE1A1P-LLP2A, samples were co-incubated with ∼200-fold excess of the unlabeled ligand, LLP2A. After incubation, the samples were centrifuged at 1,500 rpm for 5 min, and the radioactive medium was removed. Cell pellets were rinsed with ice cold binding buffer (500 µL) and centrifuged at 1,500 rpm for 3 min (2 X). The radioactivity in cell pellets was measured in a well counter (Packard II gamma counter).
Binding of ^64Cu-CB-TE1A1P-LLP2A was evaluated in human MM cell line RPMI-8226 in vitro.

Series [2] concerns 5TGM1 cells. Kind of series: In vitro cell uptake assay, 5TGM1 cells. It is filed as cell-based, mouse. How it is done:
as §1

For series [3], the system named is 5TGM1 tumors. Kind of series: Tissue biodistribution in 5TGM1 tumor-bearing KaLwRij mice. Format: in vivo, mouse. As to conditions: 2 h, co-administered ~200-fold excess cold LLP2A, p<0.05, N = 4. Here is the method:
(§2) KaLwRij mice (from Dr. Claire M. Edwards, Vanderbilt University Medical Center Cancer Biology, Nashville, TN) were housed in ventilated cage racks and allowed food and water. 5TGM1 cells in log phase growth were prepared for injection by precipitation in a centrifuge followed by a wash step with sterile endotoxin-free PBS. Finally, the cells were re-suspended in endotoxin-free PBS at a concentration of 1×10^6 cells/mL and injected with or without matrigel, respectively, in the nape of the neck subcutaneously (s.c.) or intraperitoneally (i.p.) in a 100 µL volume in 3–5 week old mice. The tumors were allowed to grow for an average of 10 d.
(§3) 5TGM1 tumor bearing mice were sacrificed at 2 or 24 h after the injection of the radiopharmaceutical, ^64Cu-CB-TE1A1P-LLP2A. Blood, marrow, fat, heart, stomach, intestines, lungs, liver, spleen, kidneys, muscle, bone, pancreas, and tumor were harvested, weighed, and counted in the γ-counter. For the in vivo blocking studies, an additional group of mice was injected with the radiopharmaceutical premixed with ∼200-fold excess of LLP2A to serve as a blocking agent and sacrificed at the respective time point. The percent injected dose per gram of tissue (%ID/g) was determined by decay correction of the radiopharmaceutical for each sample normalized to a standard of known weight, which was representative of the injected dose.
(§4) Figure 3 Tissue biodistribution of ^64Cu-CB-TE1A1P-LLP2A in 5TGM1 s.c. tumor mice. Biodistribution of ^64Cu-CB-TE1A1P-LLP2A in 5TGM1 s.c. tumor mice (black bars). The open bars represent biodistribution in the presence of non-radioactive blocking agent (∼ 200 fold excess LLP2A). Mice were injected with ^64Cu-CB-TE1A1P-LLP2A (0.01 µg, 0.2 MBq, SA: 37 MBq/µg) and sacrificed at 2 h post injection. N = 4 mice/group.

Assay in series [4]: as above
Format: in vivo, mouse. The following applies: mouse, iv, 0.01 ug, total radioactivity, 2 h post injection, s.c. 5TGM1 tumor KaLwRij mice, mean±SD, N = 4. Here is the method:
as §2, §3, §4

Series [5] concerns the target T1, VLA-4 (α4β1 integrin) on 5TGM1 murine myeloma cells (Mus musculus, UniProt P09055+Q00651).
T1 construct: was incubated with ∼250,000 5TGM1 (∼ 0.41 mg protein) whole cells; endogenous in cells; host or cells: 5TGM1 murine myeloma cells (whole cells)
Kind of series: In vitro saturation binding assay on 5TGM1 whole cells. As to conditions: tracer 0.5–15.5 nM, 2 h at 4°C, 1 mM Mn2+, N = 3. Here is the method:
For saturation binding experiments, ^64Cu-CB-TE1A1P-LLP2A (0.5–15.5 nM) was incubated with ∼250,000 5TGM1 (∼ 0.41 mg protein) whole cells in 1.5 mL microfuge tubes for 2 h at 4°C in a total volume of 500 µL of binding medium (phosphate buffered saline [PBS], 0.1% bovine serum albumin [BSA] and 1 mM Mn^2+). The reaction tubes were put on a slow moving rotor during the 4°C incubation. After the incubation, samples were centrifuged at 1,500 rpm for 5 min, reaction buffer was removed by vacuum aspiration and the cells were washed two times with ice cold PBS. Non-specific binding was determined by conducting the assay in the presence of an excess (∼200 fold) unlabeled LLP2A. The radioactivity in the cell pellets was measured in a well counter (Packard II gamma counter). The specific binding was obtained by the subtraction of non-specific binding from total binding. The dissociation constant (Kd) and receptor density (Bmax) were estimated from the non-linear fitting of the specific binding versus the concentration of ^64Cu-CB-TE1A1P-LLP2A using Prism software (GraphPad, San Diego, CA).
The in vitro binding affinity of ^64Cu-CB-TE1A1P-LLP2A was investigated by determining the equilibrium dissociation constant (Kd) and the maximum specific binding (Bmax) of the radiolabeled conjugate to 5TGM1 cells in saturation binding assays. […]

In series [6] the test system is 5TGM1 tumors. The series is described as follows: Small animal PET/CT imaging in KaLwRij mice bearing 5TGM1 tumors. As to conditions: 2 h post injection. It is filed as in vivo, mouse. Here is the method: as §2
(§5) Prior to small animal PET/CT imaging, mice were injected intravenously (tail vein) with ^64Cu-CB-TE1A1P-LLP2A (0.9 MBq (SA: 37 MBq/µg)). At 2 h post injection, mice were anaesthetized with 1–2% isoflurane and imaged with small animal PET (Focus 220 or Inveon (Siemens Medical Solutions, Knoxville,TN)), while the CT images were acquired with the Inveon. Static images were collected for 30 min and co-registered using the Inveon Research Workstation (IRW) software (Siemens Medical Solutions, Knoxville,TN). PET images were re-constructed with the maximum a posteriori (MAP) algorithm. The analysis of the small animal PET images was done using the IRW software. Regions of interest (ROI) were selected from PET images using CT anatomical guidelines and the activity associated with them was measured with IRW software. Maximum standard uptake values (SUVs) for both experiments were calculated using SUV = ([nCi/mL]x[animal weight (g)]/[injected dose (nCi)]). A set of mice was also imaged at 24 h post injection.
(§6) To test the ability of ^64Cu-CB-TE1A1P-LLP2A to image MM, small animal PET/CT imaging was conducted in KaLwRij mice bearing 5TGM1 murine myeloma tumors. The following i.p. and s.c. 5TGM1 models were used for the proof-of-principle imaging studies: 1) a non-matrigel assisted s.c. (plasmacytoma) tumor in the flank of the mouse (Figure 4B); 2) a matrigel assisted s.c. tumor in the flank of the mouse (Figure 4C); and 3) tumor cells injected in the peritoneal (i.p.) cavity (Figure 4D). Figure 4 contains […] (B-D) representative maximum intensity projection (MIP) small animal PET images using ^64Cu-CB-TE1A1P-LLP2A (0.9 MBq, 0.05 µg, 27 pmol, SA: 37 MBq/µg) at 2 h post injection in the various models compared to a non-tumor-bearing control mouse (Figure 4A). […] The SUV of the tumor shown in Figure 4D was not determined due to the large tumor size and overlap with the spleen and bladder. The heterogeneous distribution of the imaging agent in Figure 4D likely corresponds with the heterogeneity of the tumor mass. The uptake of ^64Cu-CB-TE1A1P-LLP2A in i.p. tumors was determined to be 14.9±2.6%ID/g by post PET biodistribution (2 h post injection). […] We are currently investigating the imaging of myeloma induced spleen pathology (splenomegaly) in orthotopic (i.v.) 5TGM1 mouse models of MM.

Assay in series [7]: as above
The following applies: KaLwRij, mouse, iv, total radioactivity. It is filed as in vivo, mouse. How it is done: as §2, §5, §6

T1 sequence (Q00651 41-1039): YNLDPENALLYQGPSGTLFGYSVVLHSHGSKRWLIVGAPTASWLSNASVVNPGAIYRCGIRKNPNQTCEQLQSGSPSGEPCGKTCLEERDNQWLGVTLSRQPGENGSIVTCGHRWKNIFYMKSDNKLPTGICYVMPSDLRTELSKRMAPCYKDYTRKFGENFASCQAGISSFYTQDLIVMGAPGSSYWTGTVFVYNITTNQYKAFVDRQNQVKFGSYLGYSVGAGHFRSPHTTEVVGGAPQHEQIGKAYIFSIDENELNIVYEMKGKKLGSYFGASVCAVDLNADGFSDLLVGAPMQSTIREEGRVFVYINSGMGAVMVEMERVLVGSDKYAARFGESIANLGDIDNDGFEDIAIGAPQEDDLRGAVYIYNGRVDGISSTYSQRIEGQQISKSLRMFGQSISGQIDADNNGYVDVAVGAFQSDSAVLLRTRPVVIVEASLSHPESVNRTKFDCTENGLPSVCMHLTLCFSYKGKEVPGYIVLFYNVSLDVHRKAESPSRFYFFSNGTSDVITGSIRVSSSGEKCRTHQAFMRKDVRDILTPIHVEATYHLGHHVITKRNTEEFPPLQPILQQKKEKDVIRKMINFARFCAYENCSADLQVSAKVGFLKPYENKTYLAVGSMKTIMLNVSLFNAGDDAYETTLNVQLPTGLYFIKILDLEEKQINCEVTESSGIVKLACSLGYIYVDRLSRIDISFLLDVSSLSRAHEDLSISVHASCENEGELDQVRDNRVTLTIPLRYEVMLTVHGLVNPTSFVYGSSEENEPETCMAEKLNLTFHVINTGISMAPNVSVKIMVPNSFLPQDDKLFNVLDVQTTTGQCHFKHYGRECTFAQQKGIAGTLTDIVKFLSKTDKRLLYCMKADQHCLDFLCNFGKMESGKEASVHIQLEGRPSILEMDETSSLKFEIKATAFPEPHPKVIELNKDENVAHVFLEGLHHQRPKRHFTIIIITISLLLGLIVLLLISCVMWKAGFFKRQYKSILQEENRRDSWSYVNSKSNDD
T1 sequence (P09055 21-798): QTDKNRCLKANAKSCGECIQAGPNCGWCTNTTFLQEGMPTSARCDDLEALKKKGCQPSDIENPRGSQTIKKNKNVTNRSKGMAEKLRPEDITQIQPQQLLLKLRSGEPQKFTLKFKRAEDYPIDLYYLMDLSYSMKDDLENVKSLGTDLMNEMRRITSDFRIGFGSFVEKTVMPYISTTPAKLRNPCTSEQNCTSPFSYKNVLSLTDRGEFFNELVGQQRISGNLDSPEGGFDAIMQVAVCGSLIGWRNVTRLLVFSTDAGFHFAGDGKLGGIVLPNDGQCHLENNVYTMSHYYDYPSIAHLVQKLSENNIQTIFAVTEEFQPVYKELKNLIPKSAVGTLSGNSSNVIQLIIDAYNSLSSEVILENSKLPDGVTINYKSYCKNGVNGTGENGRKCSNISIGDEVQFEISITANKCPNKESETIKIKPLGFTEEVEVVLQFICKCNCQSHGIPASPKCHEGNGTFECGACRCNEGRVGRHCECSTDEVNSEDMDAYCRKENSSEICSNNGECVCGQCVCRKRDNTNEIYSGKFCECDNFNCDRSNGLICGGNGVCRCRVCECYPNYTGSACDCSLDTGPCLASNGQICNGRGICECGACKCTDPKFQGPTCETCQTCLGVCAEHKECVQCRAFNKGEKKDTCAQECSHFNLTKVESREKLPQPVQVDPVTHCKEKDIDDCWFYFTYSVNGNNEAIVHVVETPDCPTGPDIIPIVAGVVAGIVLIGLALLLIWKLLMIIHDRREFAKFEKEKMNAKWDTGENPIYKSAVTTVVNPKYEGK

As for `Cc1ccccc1NC(=O)Nc1ccc(CC(=O)N[C@@H](CCCCNC(=O)/C=C/c2cccnc2)C(=O)N[C@@H](CCCC(=O)O)C(=O)NC2(C(=O)NCCOCCOCCNC(=O)CCC(=O)NCCOCCOCCNC(=O)CCC(=O)N[C@@H](CCCCNC(=O)CN3CCCN4CCN(CCCN(CP(=O)(O)O)CC4)CC3)C(N)=O)CCCCC2)cc1` [64Cu-CB-TE1A1P-LLP2A, metal not drawn], the “Cell uptake in RPMI-8226 cells, with vs. without excess LLP2A” value in series [1] is “significantly reduced; also recorded: significantly blocked”. The “Cell uptake (internalized + surface-bound), block vs. non-block” value in series [2] (0.1 nM tracer, 60 min, 37°C, PBS/0.1% BSA/1 mM Mn2+, with and without ~200-fold excess LLP2A, P<0.0001) was “receptor specific uptake; also recorded: significantly different; also recorded: significantly reduced”. Further, the “Cell uptake in the absence of receptor activating cation Mn2+” value in series [2] (without Mn2+, data not shown) is given as “much lower binding”. The “Uptake in tumor, spleen and bone in the presence of blocking agent” value in series [3] was “significantly reduced”. The tissue uptake at 2 h in series [4] (i.v., 0.01 µg, 0.2 MBq, read-out: Tumor uptake (s.c. 5TGM1)) turned out to be 12 ± 4.5 %ID/g; in series [4] (spleen, read-out: Spleen uptake), 8.8 ± 1 %ID/g. Further, the “Bmax (maximum specific binding, receptor density)” value in series [5] was found to be 136 pmol/mg. Besides, the “Spleen SUV, non-tumor bearing mouse” value in series [6] (non-tumor KaLwRij control mouse) was determined as 2.2. Further, the “Reduction in tumor SUV in the presence of blocking agent” value in series [6] (~200-fold excess LLP2A, P<0.05) turned out to be 3 fold. Further, the “Tumor SUV, early stage non-palpable s.c. 5TGM1 tumor without matrigel” value in series [6] (representative mouse, Figure 4B) is reported as 2.24. In addition, the “Tumor SUV, matrigel assisted s.c. 5TGM1 tumor” value in series [6] (representative mouse, Figure 4C) came out at 6.2. Also, the SUV at 2 h turned out to be 3.3 SUV in series [7] (spleen, 0.05 ug, 2 h post injection, 5TGM1 tumor bearing mice, read-out: Spleen SUV, tumor bearing mice); 6.2 ± 1.1 SUV in series [7] (tumor, 0.05 ug, 2 h post injection, 0.9 MBq, 0.05 µg, 27 pmol, 5TGM1 tumors, mean±SD, N = 4, read-out: Tumor SUV (averaged maximum SUV from MIP PET images), no block); 2.3 ± 0.4 SUV in series [7] (tumor, 2 h post injection, ~200-fold excess LLP2A, mean±SD, N = 4, P<0.05, read-out: Tumor SUV in the presence of blocking agent). Moreover, in series [7] (tumor and muscle, 0.9 MBq, 2 h post injection, calculated from MIP image SUVs), the tissue to tissue ratio at 2 h was 28 ± 6. Moreover, in series [7] (tumor and muscle, 0.9 MBq, 24 h post injection, calculated from MIP image SUVs), the tissue to tissue ratio at 24 h was 161 ± 41.
